Assay results as given in paper PMC9262599, “DNA G-quadruplex structure participates in regulation of lipid metabolism through acyl-CoA binding protein”.

Key:
BmLARK [1] = target: T1, BmLARK (Bombyx mori, UniProt Q5I7M6 1-343); assay: EMSA; 50 mM K+; 10 mM Tris pH 7.5, 50 mM KCl, 1 mM DTT, room temperature, 20 min; 2 uM probe, 2 ug BmLARK or 1 ug BG4 in 20 ul; 4% PAGE on ice; settings: protein: recombinant; tags: GST (pGEX-6P-1); label: 5' 6-FAM
BmLARK [2] = target: T1, BmLARK; assay: EMSA; 50 mM K+; reduced by unlabelled same-sequence competitor; 10 mM Tris pH 7.5, 50 mM KCl, 1 mM DTT, room temperature, 20 min; 2 uM probe, 2 ug BmLARK or 1 ug BG4 in 20 ul; 4% PAGE on ice; settings: protein: recombinant; tags: GST (pGEX-6P-1); label: 5' 6-FAM; G-quadruplex

T1 sequence (Q5I7M6 entry or part of it): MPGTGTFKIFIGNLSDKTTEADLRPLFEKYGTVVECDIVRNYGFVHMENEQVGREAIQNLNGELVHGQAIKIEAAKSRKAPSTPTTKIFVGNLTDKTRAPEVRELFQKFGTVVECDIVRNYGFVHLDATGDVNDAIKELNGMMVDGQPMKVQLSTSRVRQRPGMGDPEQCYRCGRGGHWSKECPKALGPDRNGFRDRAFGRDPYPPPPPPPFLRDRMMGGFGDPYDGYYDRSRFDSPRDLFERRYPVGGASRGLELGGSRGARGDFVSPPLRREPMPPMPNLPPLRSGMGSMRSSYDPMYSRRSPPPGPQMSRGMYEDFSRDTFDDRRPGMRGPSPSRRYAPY

Binder | binding result (BmLARK [1]) | binding result (BmLARK [2])
GTCGTGAAGGTGTTGATGGAGTGTAGGTT (ssDNA) [FAM-Mut BmACBP G4] | no binding | –
GTCGGGAAGGGGTTGGGGGGGGGTAGGTT (structured_DNA) [FAM-BmACBP G4 (folded with K+)] | – | binds
